Molecular target: SARS-CoV-2 RBD WT for SPR binding assays (SARS-CoV-2) (UniProt P0DTC2)

S309 IgG1 (LS) (antibody)
neutralisation of authentic SARS-CoV-2-Nluc on Vero E6 cells (IF/luc), IC50: 78.9 | neutralisation of authentic SARS-CoV-2-Nluc on Vero E6 cells (IF/luc), IC90: 300

From publication PMC8043444
